± gives the uncertainty stated by the source.
experiment: amyloid nucleation score (Sup35N fusion, yeast selection) (log enrichment); library NNK2; higher = more nucleation; inactive = no reads after selection
In short: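 For the nucleation score, DiMSum gave the log enrichment of output over input reads, centred on the mode score of non-aggregating sequences. Psi-negative yeast expressing Sup35N fused to peptides of 20 random codons were induced with 100 μM copper sulfate for 24 hours and grown 7 days at 30°C on medium lacking adenine and uracil. Input and output plasmid inserts were Illumina-sequenced, and sequences with under 100 input reads were excluded.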

| Substance | amyloid nucleation score |
| --- | --- |
| IRSFVSIRMFVCGRSDLRSN | -0.22 ± 1.1 |
| AWETFELVLY | -0.145 ± 0.76 |
| SGLVVMRLLFLRGY | -0.558 ± 0.54 |
| IIEPYVHGVWKFHRFYLKSA | -0.701 ± 0.55 |
| PREKLYITMNMADIGSSRHP | 4.86 ± 0.051 |
| MRMGMLKMTFFGCSPDLKRL | -0.277 ± 0.38 |
| ISWVLRCQSKSRWLIQ | 0.627 ± 0.57 |
| SCYLVVFPKIC | inactive |
| FRVSSIWDRLVATLGNMCRS | inactive |
| DYSRLSLGICEVDDCTLRMV | -0.761 ± 0.39 |
| SLGNQIQVCISLPSMPVTPW | 0.512 ± 0.66 |
| YCMFFCGCVTDPECNVPSDM | 3.49 ± 0.1 |
| TISWFLETYVRSLFPRVGRG | -0.035 ± 0.33 |
| IYRRPMENI | -0.389 ± 0.36 |
| VSRSVY | 0.166 ± 0.3 |
| LSSSMSSSRASQDFGFLGVH | 0.877 ± 0.48 |
| HAFRDIMYTVTRSWAKRWFY | 1.56 ± 0.11 |
| LSYPTVYLATLVYFLQMWAV | -0.285 ± 0.37 |
| SACNARRVPFG | 0.788 ± 0.51 |
| HLLIRGVMSTKNRCSLLVIG | -0.582 ± 0.44 |
| TGDSVGLGLLGSWRNEKVCD | 0.088 ± 0.3 |
| EWTLWSSGLRAES | 0.217 ± 0.3 |
| ASPSHACGLC | 2.12 ± 0.15 |
| NHWWIHYDDLLLAHDFLHLW | 0.055 ± 0.42 |
| LDAGCRMYWGVRLEFRICNL | 4.79 ± 0.062 |

| Substance | amyloid nucleation score |
| --- | --- |
| RFLAN | inactive |
| AVVIWAKML | 0.372 ± 0.27 |
| VYTWNGRSWEYWTCPTLRNP | 0.371 ± 0.8 |
| MLPIRRIMQQFHGKPYNCYT | inactive |
| VMCIG | -0.33 ± 0.41 |
| ILLVYTLHRCLSSRVNEYQM | 4.22 ± 0.052 |
| LQYCHRGC | -0.179 ± 0.44 |
| YSGRREILYHNRVSPHCMNL | 2.64 ± 0.12 |
| VQDQNRREAEVSSKGGTCSW | -0.42 ± 0.35 |
| TLNYSVEQPYAVIILGCKLA | 3.56 ± 0.083 |
| KGLWTISVSLWVV | 0.112 ± 0.18 |
| SCAHCCHRKVLR | 0.53 ± 0.3 |
| YLYPSCCIRYILILNFYTVI | 0.013 ± 0.16 |
| IYLQGAGLL | inactive |
| TINTAMWTWSITETLPYCTW | 4.03 ± 0.06 |
| ILLINCMFNQYSGC | 7.894 ± 0.075 |
| CLNPFDSYGTSYCKCWWSAT | -0.451 ± 0.33 |
| GFHQFPVDVVALGWSILRCF | -0.075 ± 0.31 |
| IGLYGNANPMTGVHSHLLCG | -0.088 ± 0.54 |
| VLSPQVKRSHTFLGNDLRTD | 4.64 ± 0.072 |
| NILVTRNNKHTSFCYTSLLL | 2.22 ± 0.084 |
| VFVERMPVGFHPFRIKIILT | 1.01 ± 0.59 |
| WCHTGKRINFPFICFLWFWC | inactive |
| LNKNLLEKCLYRDLLLSVFW | -2.32 ± 1.1 |
| SSTEMSFYMIHKIFAVY | inactive |

| Substance | amyloid nucleation score |
| --- | --- |
| RRDFWPSVSLGCDFRIRFPR | 2.1 ± 0.12 |
| LFRSHSCVCTLVKQ | -0.008 ± 0.46 |
| CMWWIHDPGRDRLKELKVAR | 0.452 ± 0.36 |
| YWVFMNSRLVAIGPANALVV | -0.69 ± 1.1 |
| IFWVVEFWIYYTSFLSWETR | 0.455 ± 0.51 |
| VCLFLSNQRMWYVEFNTC | -0.549 ± 1 |
| ESRHSSLFHHPE | 0.119 ± 0.65 |
| GSFMYSREVRLRYALARSFE | -0.545 ± 0.41 |
| FFGALNWGLKQE | 0.646 ± 0.43 |
| WRGFTECRVKLRYSGSGQFC | 2.92 ± 0.058 |
| FDLAMGVSLVKRLRLVLCLS | -1.12 ± 0.64 |
| VHFCLKH | 0.241 ± 0.22 |
| FLLPIWGSNHNTLNFR | -0.547 ± 1.1 |
| SGNIAMFVPSVRWSVRDYCC | 1.06 ± 0.14 |
| AVIDIIKRTSCTCDESCCIL | 0.503 ± 0.31 |
| CSTTWGDTIAGHEAGLVSLS | 1.02 ± 0.37 |
| ITSFKWVLKGSWCKGRESKF | 4.87 ± 0.068 |
| SKGYYTLKVTYWTFR | -0.745 ± 0.44 |
| ILLRMTITCMFTPYHAERRG | 4.61 ± 0.07 |
| VCDGV | -0.582 ± 0.44 |
| SFSVYRFVGTLSGYADLGLG | 0.302 ± 0.37 |
| RNLDNHRTFFSFRIGLFMWS | 6.13 ± 0.077 |
| FYGRCLTFTAHPSFSRFAR | 0.333 ± 0.61 |
| YLLTLFGPRMTD | -1.45 ± 0.76 |
| NGLYVAIFSVNLFPPLTKYI | 5.422 ± 0.053 |

| Substance | amyloid nucleation score |
| --- | --- |
| TNRNKRWRYLTLFV | 0.545 ± 0.37 |
| FQSDIKVIIMSTCTISGGRY | 1.33 ± 0.25 |
| ACLLLRSMFSKQRLTFR | -0.38 ± 0.76 |
| STSSKVGVEAYTRDDRHLLS | 1.01 ± 0.19 |
| SMYVINRSI | -0.198 ± 0.31 |
| VGVIAMPLFLCMGQDSLLFV | 4.6 ± 0.061 |
| MRTRWAVITKMFRRGWEVKV | 0.753 ± 0.67 |
| TTTAERSVRPVSCDGFIACG | 3.56 ± 0.054 |
| VTRKTWFFVLCNQLFTLFAD | 6.975 ± 0.058 |
| GMPFG | 0.044 ± 0.28 |
| LRYAYTFDVDLSTRQAAVSL | -0.573 ± 0.79 |
| KMAMTVLILPYVPGQLRLTE | 3.12 ± 0.1 |
| DRWLVFPSNRPVFVMDRFNG | -0.414 ± 0.64 |
| LTVLLSMK | -0.911 ± 0.5 |
| YTTYGHTSHLTLYPYTPRMM | 0.123 ± 0.74 |
| KIRASVNSSRFFWFDAS | 2.96 ± 0.13 |
| GVKSFGVFGSMYWILMFSKA | -0.495 ± 0.48 |
| YGCCGKDFCVGPRGVCAV | 1.05 ± 0.24 |
| SDWII | -0.063 ± 0.56 |
| MKGNGCNIFRQGTWRDSFAD | -0.715 ± 0.41 |
| CEFRDQRFPLVCAGYGRYIG | 0.653 ± 0.57 |
| PFSWH | 1.38 ± 0.14 |
| LERNSMPITVSWSGFEGLKG | -0.295 ± 0.65 |
| TVTSLRSLPIMSMPCRETTD | 1.1 ± 0.25 |
| WYFPSVKIIENLW | 6.035 ± 0.038 |

| Substance | amyloid nucleation score |
| --- | --- |
| LVVLLMRWSLPLNVESGMF | -0.105 ± 1.1 |
| LMSCRILRSAKRGHSNVKRF | 0.254 ± 0.46 |
| CIGLHC | -0.196 ± 1 |
| RSLSLLLVFLAMCAIMVPMR | 8.575 ± 0.04 |
| VSMLISTTPAYIIRQFKGLW | 1.09 ± 0.68 |
| SLKANYGWLISNAWDMFHLG | -0.467 ± 0.74 |
| IYRDPHNYCM | -0.751 ± 1.1 |
| MFKSCQEGIKHWNNPT | 3.59 ± 0.051 |
| TFCVNFARRVSLRSVLATIG | 0.034 ± 0.43 |
| GETVGFKARFMLMHTSFLLR | 4.902 ± 0.045 |
| LFTVYFKK | -0.6 ± 0.63 |
| RMLRKSNGS | 0.066 ± 0.3 |
| CIMVSIVPKGVCLGVLVAVA | 0.345 ± 0.28 |
| HFSLAC | -0.91 ± 0.48 |
| NLISKDIVLHWSRALC | 0.339 ± 0.56 |
| YHFYMASYKAFKSGGVGTGG | -1.56 ± 1.1 |
| MYIMLFRFVRIVDLLDCLGN | 0.207 ± 0.43 |
| VGALCGYAVVSWYSWSLSVL | 1.83 ± 0.11 |
| GCMLSRMNTGLSRLGLFFDS | -1.25 ± 0.55 |
| CSCGYMKANR | -0.721 ± 1 |
| CVGGVSNCMRYGKTFRDESY | -0.438 ± 0.27 |
| YYLYWHFKIYWRQHLVNAFN | -1 ± 1.1 |
| FGSVRASGISDFGRMDHGTG | -0.079 ± 0.76 |
| GKLLLFSSWGRA | 0.083 ± 0.44 |
| FLGKDWYVVTSVVKYTNAFF | 0.104 ± 0.45 |

| Substance | amyloid nucleation score |
| --- | --- |
| EIARLTNLDWTNISTFL | -0.698 ± 1.1 |
| YFLSSFVSNWWAQYVYW | inactive |
| VAFKRLGNMSSGTFSWAMLN | 0.894 ± 0.74 |
| DSIFFYTGMQTDYHAHMSPC | inactive |
| SVFVGLRLGKAS | 0.11 ± 0.28 |
| IVARHPIGFQLVWGHWLTVA | 0.412 ± 0.26 |
| PSWCS | 0.33 ± 0.17 |
| DIDAIYTFRACGDMPSHFRR | -0.172 ± 0.35 |
| NVRMSGLF | 2.67 ± 0.14 |
| YTVGRGSR | 0.794 ± 0.6 |
| AIIGKFVGVCCD | -0.931 ± 1.1 |
| EWRGMLLVSTRLVKDIVR | -0.553 ± 0.35 |
| VQIKLRQFTNKAFYTESMST | -0.053 ± 0.63 |
| WYFIGKCRDGVSDGMRNNVR | 0.148 ± 0.22 |
| PIGINSVKVSNYINLRYCAC | 5.736 ± 0.043 |
| SVNFSANRRNIDGFERAGPA | -0.476 ± 1.1 |
| NSKLPAEFLFFQYECMESPR | -0.758 ± 0.79 |
| IEGQGLIVCNGDCTGRPNLR | 1.69 ± 0.39 |
| GWRFL | -1.17 ± 0.54 |
| NGRLWNGFMYCGWTNWFFCV | 1.11 ± 0.34 |
| LKCSFAVTDAWIGNRRAQRQ | 1 ± 0.2 |
| MLGRVKTKVACYG | 0.409 ± 0.64 |
| VQFTRSVRFTLQFCARSDKT | 6.91 ± 0.045 |
| CTPLGFCSKNRLGLQEDGVK | -0.788 ± 0.76 |
| FNFIIAQE | -1.1 ± 1.1 |

| Substance | amyloid nucleation score |
| --- | --- |
| LHKISIGKCSRCSCRNTFGE | -0.171 ± 1 |
| NGITDV | -0.414 ± 0.45 |
| CQCSVSVGNTDSHNLPKVYV | -0.221 ± 1.1 |
| EMSFSLTYSRSRHFRSGGTA | 6.32 ± 0.064 |
| STILTSVFMFWVCGCFNNKT | 7.03 ± 0.078 |
| NMYTWAE | 0.371 ± 0.6 |
| FSMMFIL | 3.57 ± 0.075 |
| NSSTVGMIAF | -0.317 ± 0.22 |
| YCERAHALICSLRQVGWVPR | 0.719 ± 0.25 |
| WWYGGLEMGFIICFRIPNVI | -0.606 ± 1.1 |
| DHPYTRKFI | -0.311 ± 0.79 |
| YHWIIIRVA | -0.601 ± 0.79 |
| KLRFYIYCFILLKCMTGART | inactive |
| SDYHLFTYTLGINSTLDGRV | -1.3 ± 0.38 |
| YRVCAYLAAKEFDSRHGGDA | 0.744 ± 0.37 |
| AIVSMFGVITY | -2.57 ± 0.62 |
| LHPLVSLVVHTFMPEVRLVL | inactive |
| RMQVYGDMSKCKDSWFCFRT | 0.703 ± 0.4 |
| SDQQYGCDWVWLGRGPIEVA | 0.252 ± 0.28 |
| ACNFFPLI | 3.29 ± 0.065 |
| LFYAAEYKLCMEV | -0.857 ± 0.41 |
| YLYSNG | inactive |

— the supplement of paper PMC12042874
